Test results as given in the domain aggregation screens of Martell et al. (2025).

Experiment: soluble fraction after stress (log2 fold change); higher = more stays soluble; pooled small domains, quantitative proteomics
Conditions: stress: 50 degC
Outline: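 Pooled custom libraries of small protein domains were measured in a high-throughput format, with quantitative proteomics as the read-out. Each library was stressed at 50°C. Aggregation propensity is given as the base-two logarithm of the fold change in how much of each protein stays soluble after the stress. Higher values mean a larger share of the protein remains in solution.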

Row | Sequence | soluble fraction (log2)
1 | HMSQITEADYIPNTDKTWGELMEETGESLPNLVERYNNEMTKSNGKEQPQSIIQRIIEDYQMVS | 0.0384
2 | HMKGLKERLLYFIEYKGLPVQMFEKIVGLSNAAVSKMGDNTRRSTIDKISKSFPELDVNWLLTGQGEMLSY | -0.255
3 | HMEIYIDGNKYVGELRNGKPNGRGTITYTGDGSKYVGEWKNGKRYGRGKMAYTNGTTKEGVWKDDEFLYAT | 0.0597
4 | HMLRQVSDSNALETAVKKVLDANPEEVERYKSGNKKLISFFVGQTMKATKGAGNPKEINSILAKLL | 0.0186
5 | HMNHAPSLMRKIRRGLKEGRNPDDLLVNAKSISDYYYRSLSFYLLAPHFSSKSKQYKQVISLANS | 0.036
6 | HMGASFITSSKDNAINIRESATTDSKVIETIKNGEILESTEKSGDWHKVTYYNSEIKKSFTGYIHNSQLK | 0.168
7 | HMIRQGTKQALLIEMLQRPEGASITEIVEATSWQAHTARGAISGALKKKLGLPITSEKHPERGTVYKL | -0.685
8 | HMTTQTGTVKWFNEGKGFGFIAPDDGGKDLFAHFKEIQGTGFKTLAENQRVEFEVTQGQKGPQASKI | -0.0807
9 | HMSQTDQALRHLIREAWATLPQRQQQAVELAYYEGLPDTEIAARLNQPVEEVKTSIVLGMAHLREALHSY | -0.583
10 | HMKSKYLIKIEGDFDEKDLYKYLINVSIVNHTKNNGFTEVEFYNDNYSLQQNFLKSMLNDGIIITEFKKVE | -0.115
11 | HMSIGPQMAGRRVLSGDLIARLEAFEGTVVLGRGVAREDALLIATQAGHVRWEPASRRLWVDSTA | -0.458
12 | HMQINLSEWVLAAREYAGPEMTQEKLAEHLGRTKANVSAMENGRSKPSFEQMMEIHRVTGYPLPYQ | -0.218
13 | HMEKKEWVIYITGAVKKPGVYRIPEGARVYQALEAAGGFTPEADRDAVNLAAMLQDGAHIKFPAVGEEV | 0.117
14 | HMQKIEKVDYGTFLKMIENGEIDQVNLTEKKISFTTDKDAETVYETGRVEDPNIVDRLYQADVEFTQEI | 0.207
15 | HMKNDIQLKHDVEEELQWDPAVDASRFAVQAKDGVVTLSGGVDTFADKHAAEEAIRRVAGVTALVIHVDV | -0.107
16 | HMERPPHELLSDREYQTMVMIASGRTLTQIAEEMSLSPKTVSVYRARLLEKMKLKNNAELTHYALKHKLV | 0.0152
17 | HMQIKNVDYGTFLDMLDEKNVKEVEIEDEQIVFTDNADPTGYYTTGRMEDPDLVDRLHNSGATFSAI | -0.12
18 | HMAPAYELTEEETKIIEILKANENIDLNELKSQAALSGKKWDKSMKNLAKYNLTKVTVDGDAKTVAYLA | 0.0932
19 | HMSNLGLQIVRTLTDAGKGVVFITHKLKEALTIADRINVLRRGKVVGDADPKTASESQIAEMMVGRPVQL | -0.144
20 | HMNIEEAESILKEIKTVLTDKEYEVYTLRAKGFTYQEIASLLNTTTKSVDGALSRIKTKINNIK | 0.0839
21 | HMLEPEVLDLIGQVKSVHHFSVTQSHQLEKLVRHAHTLGFEIAELKSLLASSPNAKSLLSSLDQKLEPLRM | -0.909
22 | HMKKPRKTSRKSIENAAIFYLQRFSSSIENLRRVLMRRVYRSAQYHNTKPEEDAKIVDSIIYRLIETGVL | -0.0617
23 | HMTTGGAEELGRTERKIVEQVGRGLSNREIAQVLGLSEGTVRNYLSTILGKLGLRDRTQLAIWSVQTGFAA | 0.197
24 | HMYLPLREVVFNALRTAIIHGEFKPGERLMEMHLAKSLGVSRTPVREAMRMLELEGLVVMIPKKGAEVAR | -3.13
25 | HMLEQISDINILSGYAKEVIAENPKTVSDYLSGKAAAFQALVGQVMKKTGGRGNPVIIQEILKRLIHKK | 0.116

Row | Sequence | soluble fraction (log2)
26 | HMDLMKKTLTKEMLLIDFMKQQFPDSSTNKLRKMLSSGRVKINNLITHKAKSQLKLGDIFELANKPHD | -0.826
27 | HMGEGIRIDSTAVVQVGEKMYAYLGGDGFSKEFWTNLPASGELAVTLKFEPIPMDAESLDFYEMPA | 0.0315
28 | HMFRPRIEPGAKGSYVLEVQKRLAKLGYEHAGFDGVYGPGTERAIMQLQRDKGLPVTGIVDMRTYEALGLF | -0.46
29 | HMPELSPEERAIIETLQKNNDLQVNIIAIKTGMDMGSLSAVLFDLEMKGLVKLLAGGMYHLI | -0.148
30 | HMSALAEELIKKNQAMILTIKPRDTIWGIANRFQSPPSEKFINQIIELNQVDPYRLRIGQDLLIPLN | -0.584
31 | HMDGYVPAERIASEVGVSARTITREMHGLEMTLMPYGIALLRRTGAGFMLAGTAKALADLRKHMTEDADTQ | -0.00161
32 | HMTDFESYTVRVTATNLNIRKGAGTNFHSAGYIKPGVYTIVEEADGKGATRWGKLKSGMGWISLDYAKK | -0.763
33 | HMNTETAVTKAIDQIQVMMDLRNRSVSFTRDQETGTDIIKVIDDNTGDTIRQMPSEELLTFMKNLTQ | 0.147
34 | HMTSVQDLLRNGDRVGYQNGSTVKYWLEEMGFHKKDLLGYVTVEEYAEALQRGSGNGGVSAIVD | -0.961
35 | HMEVPVQYIKFKIPENHFWAKKKVADIILPPETLLVLLQRGSDKMIPDGETVLLPEDTLVLIAKAPG | -0.0836
36 | HMTEKQYIYSIGDRVNIGTDEFEIVNINEKEVSIADVTFPMLVKQISYEEFDRKVKENPFNDHLII | 0.0642
37 | HMIAPQISSGKVNTKELNVRSGPATTFGIVKKLPLNAMVGIFEEKNGWFRIATGQWVSKTYVDL | -1.5
38 | HMVKLDDLTGQDKATAEATITNSGLKYSEQQEFSDEVEAGKVIRTDPGAGTSSLKAGDTVTVYVSRGPEN | -0.0778
39 | HMSEPQYKVLFSNLDDRDGGAIVTALGAMNVPYKYNDTGTALLVPADRVYDARLQLASQGLPRG | 0.18
40 | HMGGEKLPAPVAGTLLRYSVAEGARVSEGQTVIILESMKMELEINTPKAGVIHFLAAVGAQVAEGDTLAEI | -1.82
41 | HMVETDQESSLIQAIYKYFEITGDNTFFDEKVGEKTVADRMEWAMDYLIQNRFSEEYGLIWGA | -0.2
42 | HMLHQSLVVNAASGRVTVSLDIVPDEDNPYAVLRATDDSDEPLAQVRVAPSFKLNRASALAWIESQFARP | -0.821
43 | HMDSSALEPIVDQIIADNPKQVEQFQAGKTKVLGFFVGQVMKQTDGTANPKQVNELVAARLKSA | 0.181
44 | HMSLDTASDKELLGLIVSEPIATRVLDAFRTLDATLFRTTPAELAAAAGVSSEHAQKIKAVAEIAARMLKP | -0.377
45 | HMNRMKLLREQHNLSQTDLAKILNISRQSYNFYENEKRDPDTTMLIRIADFFNVSLDYLLGRTNN | -1.66
46 | HMSDILALMPGTIKQILVAPGDSVKRGQTVIIMESMKMELTIAAHRDGVVKRIPVEQGGQVEKGMRLLELE | 0.256
47 | HMDTLESYVKRLEKLEGIADSFKGVSKAFALQAGREIRIMVESEKITDEEAVWLSKDIARRIENELEYPG | -0.378
48 | HMENFKVFMKAVQEVSPVPVRFDEISSGAKGYYSNTEKEIVIQNGMSESQTMKTGIHEVTHAMLHDRDF | 0.113
49 | HMLPKILVMDGKVNKNALTTLGKDEEWVKKVLRNHNIHSIKDVLLALYDTKGKFQYQLYDDYEK | -0.0783
50 | HMVELNDNEKIVYDILKETEKIHIDELTAKVQLTQSILSGALVQMEMKGMIVSLPGKMYKLL | -0.132

Row | Sequence | soluble fraction (log2)
51 | HMEDDRMLVWFFRKSIQNGAQSEAEGRPIFEGKDYVHIQQPGERDYIEREAHQGDIGRWPRHWQAYQEGR | -0.329
52 | HMTMGAAEAQALKDEALELYRTGGTQEDVVRAIEMYEQAAEAGNAQAASDLAYLKANGVYETAMNN | 0.268
53 | HMETIGKRVRAARQELGLTMKQLHEQTGLSTGNISDIENDRNTPSVSSLVALGRALRRSLDWLLTGEE | -0.252
54 | HMDAAANTLRILKALSESPMSADRLAELLMEEGSGRNPRTIRRYIRALREAGFGVEHREGRYVL | -0.381
55 | HMNDTSLIIDNLMLKLGNNIKNFSEIYSLLRKNLAEYGEEFIKSKVDYVLKNFNDNIEENLKKLLTE | -0.218
56 | HMTANDKRNALYRKIEVGRRQLPAMDEVAFRQLLAAEFGVESRKDMSVGQLSRLVNILAEKGAVF | -0.203
57 | HMDKNNLLIIYRTNSEGTPYAFSVTPSAKSLDALHKDAKEMLPFLEKSMNNFFSIQIWERAEYLKY | -0.643
58 | HMAVIILDEPTLGLDPAVRISLWQAIQSARDSTMSAFLITTHYIKEVADYLSAVKILDHGREVASGNPSAL | -0.302
59 | HMNTFKNIFIQEGDLFNLKKNDNQIIFAKEGILINENKKIFRLLNGKIISTNNNRLIGFEFDKIDYNLSN | 0.489
60 | HMTYAQQIGARIAFLRRLKGLTLAELAERVNKHKSTISKYESGQIIIDIESLKEVADALGVDVAQIVE | -0.0214
61 | HMSQIDLQIGHKIKSKRRKLGISQADMAKKLYISPSYLNLIESGKRKINVDLLLKLSNELGIEMSDIS | -0.478
62 | HMHYALTVDFPAALEARIDPAHRAALRGVLAHDPRPSYQSDPERLYGVAFAGKNVKFTVEDGVLTVRKIEE | 0.0218
63 | HMHKFMEQNQDRRLSRMKELIGILSEAAKTYYQESREIMSNFQYDRMYDELLELEKETGVVMAGSPTQKV | -6.44e-05
64 | HMKLRYRTQEELLGVAREYRRRGLPLSVIVIDFYHWTKFGDWKFDPAYWPDPVGMVRELRDMGVEAAV | -0.203
65 | HMAIIQSNNIFKSQKEIVDEILVELDIPKDKWNFFHMLISSGYKDEFDTNRIYEIIQTNYNMMDR | -0.205
66 | HMVDQAFQTQLKNIQARTGKNLDELYAFIRASGLVKHGEIRDLAKRELSLGHGDANTLAKFYLESLAAAA | 0.269
67 | HMSTEDYLKTIYILESQQGVHGSDVARMLKVTRPTVSIALKALEQEGYVWMDESRLVHLTDSGLQIAKDT | -1.12
68 | HMDGIRLYPGLMIEHKNFGRGQVVSVNRERGTFTAFFGKNGTRTLTIQILKTDTVRPLASQKAGK | 0.212
69 | HMTAFEPYLVKVMASVLNIRKGPGTSYAITGQIKDKGTYTIVAESGSWGKLKSGAGWISLSYTSKAGKA | -0.67
70 | HMEITRDTVIQWLEAERRSQTWLSKQLGVSVQAVSNWLREKNPQTISASAQITIRALMEEDAAK | -0.42
71 | HMTKTEFLEALRRALNGNMAAASVEDNLKFYENYFYSEEAKGRSEAAVLSELGDPRILARTLIDAAER | 0.0765
72 | HMELNFEGFYRFVRDELNVDLNAYKEKQLKRRIATVMKSSGALTLEDYSRLIANDEVIRNKFLDYITI | -1.08
73 | HMGEAIPVPDIRHKSQADAERLLQDQGLAMMVTDTGYVKTLPANYILEQIPVAGEKVKSGHVVYVIINSG | 0.0717
74 | HMKKGRIGSIIQYVREHPGVSSSEIITGLGLDISPATIRRDLTLLVAENKLSVEGQNKGTKYFVSPTYDMF | -0.323
75 | HMAEGPYSGKKVEKYPGGMEKRETMYSEGKLTRVTEFHQSGQKKMEVKVDANGQWKRLYWDNNGNPT | 0.07
